The source of these data is US20030191058A1 (WALTER AND ELIZA INSTITUTE OF MEDICAL RESEARCH, published 2003).

The target in assay [1] is recombinant murine SOCS-3, hexahistidine tagged (expressed from pET15b in E. coli, refolded) (murine) (UniProt O35718). Nature of the assay: SPR competition assay, soluble peptide against immobilised biotin-gp130(750-764) phosphopeptide, ~100 nM SOCS-3.
Assay [2] has the same target. Nature of the assay: SPR competition assay, reference gp130(750-764) phosphopeptide.
Assay [3] deals with EPOR/gp130 chimeric receptor (erythropoietin receptor extracellular domain and gp130 cytoplasmic domain). Nature of the assay: cell-based or functional assay.
Assay [4] concerns the target EPOR/gp130Y757F chimeric receptor (EPO receptor extracellular domain and gp130 cytoplasmic domain with tyrosine 757 mutated to phenylalanine). As to the kind of experiment: cell-based or functional assay.
Assay [5] has as its target recombinant murine SOCS-3, hexahistidine tagged (expressed from pET15b in E. coli, refolded) (murine) (UniProt O35718). Nature of the assay: SPR competition assay, soluble peptide against immobilised biotin-gp130(750-764) phosphopeptide.
Assay [6] has the same target. The description is as above. This is another data set of the same source.
Assay [7] concerns the target T1, recombinant murine SOCS-3, hexahistidine tagged (expressed from pET15b in E. coli, refolded) (murine, UniProt O35718 1-225).
T1 construct: also called recombinant SOCS-3; suppressor of cytokine signalling 3; not shown: hexahistidine tag from vector pET15b (NdeI/BamHI cloning)
T1 sequence (looked up): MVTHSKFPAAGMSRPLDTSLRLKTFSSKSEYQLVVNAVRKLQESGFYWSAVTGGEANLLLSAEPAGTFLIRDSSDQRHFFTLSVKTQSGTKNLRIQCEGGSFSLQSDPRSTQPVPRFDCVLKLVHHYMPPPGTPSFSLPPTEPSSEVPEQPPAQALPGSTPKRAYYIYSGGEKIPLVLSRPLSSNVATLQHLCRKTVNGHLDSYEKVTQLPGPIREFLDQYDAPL
As to the kind of experiment: pull-down: biotinylated phosphopeptide on streptavidin-agarose, eluate on SDS-PAGE. As to the method:
After washing and elution of bound protein, samples were analyzed by SDS-PAGE.
Biotinylated phosphopeptides were also prepared corresponding to the known tyrosine phosphorylation sites in murine STAT-1 (Y701) and STAT-3 (Y705). […] Following removal of the protein solution, resin was washed twice with 1 mL PBS/0.1% v/v Tween-20, and bound protein eluted with 25 μL of SDS sample buffer containing 10 mM DTT, Samples were analyzed by SDS-PAGE on 12% w/v polyacrylamide gels.

Square brackets hold non-standard residues; d marks the D form. * marks the point of attachment. Biotin = O=C1N[C@H]2[C@H](CS[C@H]2CCCCC(=O)*)N1; pY = N[C@@H](Cc1ccc(OP(=O)(O)O)cc1)C(=O)O

Broadly, the IC50 is the concentration that inhibits the measured activity by half. Regarding “gp130(750-764) phosphopeptide analogue STASTVE(pY)STAVHSG”, the IC50 in assay [1] was determined as 3400 nM. In addition, in assay [2], the IC50 analogue/IC50 wild-type turned out to be 31.
On to “truncated gp130 phosphopeptide STASTVE(pY)STVVHS”, for which, in assay [1], the half-inhibitory concentration (IC50) was 61 nM. In addition, the IC50 analogue/IC50 wild-type in assay [2] amounted to 0.55.
For “gp130(750-764) phosphopeptide analogue STASTVE(pY)ATVVHSG” the same measures were 72 nM and 0.65.
On to “truncated gp130 phosphopeptide STASTVE(pY)STVVH”, for which, in assay [1], the 50% inhibitory concentration (IC50) is 77 nM. Further, the IC50 analogue/IC50 wild-type in assay [2] came out at 0.7.
“truncated gp130 phosphopeptide AcTVE(pY)STVVHSG”: the 50% inhibitory concentration (IC50) in assay [1] was 120 nM. Also, the IC50 analogue/IC50 wild-type in assay [2] came out at 1.1.
As for “SOCS-3 expressed in transiently transfected 293T cells (Flag-tagged, detected with anti-Flag antibody)”, the 50% inhibition of EPO-induced APRE-luc luciferase activity in 293T cells (amount of SOCS-3 DNA transfected) worked out at 4 ng in assay [3] and 54 ng in assay [4].
“truncated gp130 phosphopeptide Ac(pY)STVVHSG”: the IC50 in assay [1] stood at 9600 nM. The IC50 analogue/IC50 wild-type in assay [2] was 87.
In the case of “truncated gp130 phosphopeptide STASTVE(pY)STVV”, the IC50 in assay [1] was 1100 nM. Also, in assay [2], the IC50 analogue/IC50 wild-type came to 10.
With “JAK1 activation loop phosphopeptide IETDKE(pY)YTVKDDRD”, in assay [5], the IC50 came to 230000 nM.
As to “JAK2 activation loop phosphopeptide LPQDKE(pY)YKVKEPGE”, in assay [2], the fold weaker affinity than gp130(750-764) came out at 10000 fold.
With “truncated gp130 phosphopeptide AcE(pY)STVVHSG”, the concentration for half-maximal inhibition (IC50) in assay [1] came out at 970 nM. Also, in assay [2], the IC50 analogue/IC50 wild-type is 8.8.
The corresponding values for “truncated gp130 phosphopeptide analogue AcVA(pY)STVVHSG” are 550 nM and 5.
As to “JAK3 activation loop phosphopeptide LPLGKD(PY)YVVREPGQ”, the IC50 in assay [6] was found to be 110000 nM; in assay [5], 140000 nM. Also, the fold weaker affinity than gp130(750-764) in assay [2] stood at 1000 fold.
For the molecule “gp130(750-764) phosphopeptide analogue STASTVE(pY)STVVASG”, in assay [1], the IC50 came to 770 nM. Moreover, the IC50 analogue/IC50 wild-type in assay [2] was determined as 7.
The corresponding values for “gp130(750-764) phosphopeptide analogue STASTVE(pY)STVAHSG” are 1100 nM and 10.
Take “truncated gp130 phosphopeptide analogue AcAE(pY)STVVHSG”: the IC50 in assay [1] amounted to 580 nM. Also, in assay [2], the IC50 analogue/IC50 wild-type amounted to 5.3.

B1: pY765 STVVHSG(pY)RHQVPSV gp130 (758-772) (peptide)
peptide: Biotin-STVVHSG[pY]RHQVPSV-NH2
SMILES: CC(C)[C@H](NC(=O)[C@H](CO)NC(=O)[C@@H]1CCCN1C(=O)[C@@H](NC(=O)[C@H](CCC(N)=O)NC(=O)[C@H](Cc1c[nH]cn1)NC(=O)[C@H](CCCNC(=N)N)NC(=O)[C@H](Cc1ccc(OP(=O)(O)O)cc1)NC(=O)CNC(=O)[C@H](CO)NC(=O)[C@H](Cc1c[nH]cn1)NC(=O)[C@@H](NC(=O)[C@@H](NC(=O)[C@@H](NC(=O)[C@H](CO)NC(=O)CCCC[C@@H]1SC[C@@H]2NC(=O)N[C@@H]21)[C@@H](C)O)C(C)C)C(C)C)C(C)C)C(N)=O
notes: also called biotinylated gp130(758-772) phosphopeptide; member of the group m25
With B1, the binding result in assay [7] is “no binding (tested: 50 µg/mL)”.

B2: biotinylated gp130(674-688) phosphopeptide (peptide)
peptide: Biotin-FNSKDQM[pY]SDGNFTD-NH2
SMILES: CSCC[C@H](NC(=O)[C@H](CCC(N)=O)NC(=O)[C@H](CC(=O)O)NC(=O)[C@H](CCCCN)NC(=O)[C@H](CO)NC(=O)[C@H](CC(N)=O)NC(=O)[C@H](Cc1ccccc1)NC(=O)CCCC[C@@H]1SC[C@@H]2NC(=O)N[C@@H]21)C(=O)N[C@@H](Cc1ccc(OP(=O)(O)O)cc1)C(=O)N[C@@H](CO)C(=O)N[C@@H](CC(=O)O)C(=O)NCC(=O)N[C@@H](CC(N)=O)C(=O)N[C@@H](Cc1ccccc1)C(=O)N[C@H](C(=O)N[C@@H](CC(=O)O)C(N)=O)[C@@H](C)O
In the case of B2, the binding result in assay [7] is listed as “no binding (tested: 50 µg/mL)”.

B3: pY914 QTVRQGG(pY)MPQ gp130 (907-917) (peptide)
peptide: Biotin-QTVRQGG[pY]MPQ-NH2
SMILES: CSCC[C@H](NC(=O)[C@H](Cc1ccc(OP(=O)(O)O)cc1)NC(=O)CNC(=O)CNC(=O)[C@H](CCC(N)=O)NC(=O)[C@H](CCCNC(=N)N)NC(=O)[C@@H](NC(=O)[C@@H](NC(=O)[C@H](CCC(N)=O)NC(=O)CCCC[C@@H]1SC[C@@H]2NC(=O)N[C@@H]21)[C@@H](C)O)C(C)C)C(=O)N1CCC[C@H]1C(=O)N[C@@H](CCC(N)=O)C(N)=O
notes: also called biotinylated gp130(907-917) phosphopeptide; member of the group m25
As for B3, the binding result in assay [7] is “no binding (tested: 50 µg/mL)”.
